Earlier results on one substance are cited in PMC6430685.

For the series, the target named is BAX (Homo sapiens) (UniProt Q07812).
Chain of BAX (Homo sapiens) (Q07812 whole entry): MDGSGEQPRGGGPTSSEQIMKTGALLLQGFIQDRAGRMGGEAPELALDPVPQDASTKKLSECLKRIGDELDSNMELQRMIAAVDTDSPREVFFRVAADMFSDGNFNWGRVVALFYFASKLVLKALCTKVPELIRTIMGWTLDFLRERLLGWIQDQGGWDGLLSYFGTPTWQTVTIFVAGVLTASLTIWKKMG

Chain of vMIA (P16778 23-487): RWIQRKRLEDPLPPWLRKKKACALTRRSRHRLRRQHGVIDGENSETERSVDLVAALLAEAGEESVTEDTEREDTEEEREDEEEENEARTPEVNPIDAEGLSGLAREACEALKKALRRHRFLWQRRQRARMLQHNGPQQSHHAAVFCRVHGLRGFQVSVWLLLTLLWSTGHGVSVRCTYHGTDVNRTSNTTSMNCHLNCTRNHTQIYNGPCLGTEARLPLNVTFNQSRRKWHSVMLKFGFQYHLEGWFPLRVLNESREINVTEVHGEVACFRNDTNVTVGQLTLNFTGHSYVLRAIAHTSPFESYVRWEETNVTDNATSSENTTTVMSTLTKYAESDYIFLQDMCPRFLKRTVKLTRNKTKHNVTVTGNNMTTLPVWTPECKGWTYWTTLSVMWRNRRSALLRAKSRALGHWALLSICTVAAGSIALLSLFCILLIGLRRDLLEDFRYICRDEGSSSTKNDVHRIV

Consider vMIA (from UniProt P16778), for which the Kd (in general, a measure of binding affinity in units of concentration) was 140 nM.
